Assay results published in IntAct's records for PubMed 19074278.

B1: Calcium and calcium/calmodulin-dependent serine/threonine-protein kinase (Lotus japonicus), A0AAR7 (parent)
chain: MGYDQTRKLSDEYEISEILGRGGFSVVRKGTKKSGNEKTQVAIKTLRRLGSSPSGTGGGQKSTATVMGFPSLRQVSVSDALLTNEILVMRRIVENVSPHPNVIDLYDVCEDSNGVHLVLELCSGGELFDRIVAQDKYAETEAAAVVRQIAAGLEAVHKADIVHRDLKPENCLFLDSRKDSPLKIMDFGLSSVEEFTDPVVGLFGSIDYVSPEALSQGKITAKSDMWSLGVILYILLSGYPPFIAQNNRQKQQMIINGNFSFYEKTWKGITQSAKQLISSLLTVDPSKRPSAQELLSHPWVRGDKAKDEQMDPEIVSRLQSFNARRKLRAAAIASVWSSTIFLRTKKLRSLVGTYDLKEEEIESLRIHFKKICGNGDNATLSEFVEVLKAMKMPSLIPLAPRIFDLFDNNRDGTIDMREILCGFSSLKNSKGDDALRLCFQMYDTDRSGCITKEEVASMLCALPEECLPADITEPGKLDEIFDLMDANSDGKVTFEEFKAAMQRDSSLQDMLLSSLRPS
partner: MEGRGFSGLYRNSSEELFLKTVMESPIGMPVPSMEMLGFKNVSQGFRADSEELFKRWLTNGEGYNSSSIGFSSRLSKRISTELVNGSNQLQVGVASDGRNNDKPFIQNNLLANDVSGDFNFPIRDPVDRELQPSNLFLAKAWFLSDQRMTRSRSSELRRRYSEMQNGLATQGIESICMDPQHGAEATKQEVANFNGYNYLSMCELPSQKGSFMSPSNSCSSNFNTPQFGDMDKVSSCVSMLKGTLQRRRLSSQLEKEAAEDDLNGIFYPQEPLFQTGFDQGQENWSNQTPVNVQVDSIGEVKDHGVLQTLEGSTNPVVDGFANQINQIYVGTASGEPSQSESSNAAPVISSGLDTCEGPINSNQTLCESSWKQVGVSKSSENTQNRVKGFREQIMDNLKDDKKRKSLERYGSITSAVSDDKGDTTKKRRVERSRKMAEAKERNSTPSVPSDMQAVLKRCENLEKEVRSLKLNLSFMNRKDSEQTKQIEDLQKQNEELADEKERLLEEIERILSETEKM

Variants of: B1
Details: with cclop_lotja CYCLOPS

Variant	effect of a mutation on the interaction
MGYDQTRKLSDEYEISEILGRGGFSVVRKETKKSGNEKTQVAIKTLRRLGSSPSGTGGGQKSTATVMGFPSLRQVSVSDALLTNEILVMRRIVENVSPHPNVIDLYDVCEDSNGVHLVLELCSGGELFDRIVAQDKYAETEAAAVVRQIAAGLEAVHKADIVHRDLKPENCLFLDSRKDSPLKIMDFGLSSVEEFTDPVVGLFGSIDYVSPEALSQGKITAKSDMWSLGVILYILLSGYPPFIAQNNRQKQQMIINGNFSFYEKTWKGITQSAKQLISSLLTVDPSKRPSAQELLSHPWVRGDKAKDEQMDPEIVSRLQSFNARRKLRAAAIASVWSSTIFLRTKKLRSLVGTYDLKEEEIESLRIHFKKICGNGDNATLSEFVEVLKAMKMPSLIPLAPRIFDLFDNNRDGTIDMREILCGFSSLKNSKGDDALRLCFQMYDTDRSGCITKEEVASMLCALPEECLPADITEPGKLDEIFDLMDANSDGKVTFEEFKAAMQRDSSLQDMLLSSLRPS [G30E]	disrupting interaction
MGYDQTRKLSDEYEISEILGRGGFSVVRKGTKKSGNEKTQVAIATLRRLGSSPSGTGGGQKSTATVMGFPSLRQVSVSDALLTNEILVMRRIVENVSPHPNVIDLYDVCEDSNGVHLVLELCSGGELFDRIVAQDKYAETEAAAVVRQIAAGLEAVHKADIVHRDLKPENCLFLDSRKDSPLKIMDFGLSSVEEFTDPVVGLFGSIDYVSPEALSQGKITAKSDMWSLGVILYILLSGYPPFIAQNNRQKQQMIINGNFSFYEKIWKGITQSAKQLISSLLTVDPSKRPSAQELLSHPWVRGDKAKDEQMDPEIVSRLQSFNARRKLRAAAIASVWSSTIFLRTKKLRSLVGTYDLKEEEIESLRIHFKKICGNGDNATLSEFVEVLKAMKMPSLIPLAPRIFDLFDNNRDGTIDMREILCGFSSLKNSKGDDALRLCFQMYDTDRSGCITKEEVASMLCALPEECLPADITEPGKLDEIFDLMDANSDGKVTFEEFKAAMQRDSSLQDMLLSSLRPS [K44A;T265I]	disrupting interaction
MGYDQTRKLSDEYEISEILGRGGFSVVRKGTKKSGNEKTQVAIATLRRLGSSPSGTGGGQKSTATVMGFPSLRQVSVSDALLTNEILVMRRIVENVSPHPNVIDLYDVCEDSNGVHLVLELCSGGELFDRIVAQDKYAETEAAAVVRQIAAGLEAVHKADIVHRDLKPENCLFLDSRKDSPLKIMDFGLSSVEEFTDPVVGLFGSIDYVSPEALSQGKITAKSDMWSLGVILYILLSGYPPFIAQNNRQKQQMIINGNFSFYEKTWKGITQSAKQLISSLLTVDPSKRPSAQELLSHPWVRGDKAKDEQMDPEIVSRLQSFNARRKLRAAAIASVWSSTIFLRTKKLRSLVGTYDLKEEEIESLRIHFKKICGNGDNATLSEFVEVLKAMKMPSLIPLAPRIFDLFDNNRDGTIDMREILCGFSSLKNSKGDDALRLCFQMYDTDRSGCITKEEVASMLCALPEECLPADITEPGKLDEIFDLMDANSDGKVTFEEFKAAMQRDSSLQDMLLSSLRPS [K44A]	disrupting interaction
